For data set [1], the target named is ATM-L-directed TALE-omega K59E (synthetic construct, K59E). In words: one_hybrid; versus canonical ATM-L TALE. The conditions noted are these: tags: N-terminal FLAG-NLS, C-terminal RNAP omega.
The target in the next data set is omega-Zif268-DBD fusion (Mus musculus, UniProt P08046 SEQ:103-190). In words: one_hybrid; pIII-luciferase induction, site at -62, E. coli.

B1: ATM left half-site on-target (dsDNA)
DNA 1: TGAATTGGGATGCTGTTT
DNA 2: AAACAGCATCCCAATTCA
On to B1, for which the binding signal in data set [1] worked out at 1.5 fold increase.

B2: Zif268 consensus site (dsDNA)
DNA 1: GCGTGGGCG
DNA 2: CGCCCACGC
In the data set with omega-Zif268-DBD fusion, B2 returned a binding signal of at least 10 fold.

B3: ATM left half-site 5'A (dsDNA)
DNA 1: AGAATTGGGATGCTGTTT
DNA 2: AAACAGCATCCCAATTCT
modifications: [1 (T>A)]
Molecule B3 yielded a binding signal in data set [1] of 2 fold increase.

The values are drawn from patent publication US20240200044, “EVOLUTION OF TALENS” (President and Fellows of Harvard College, published 2024).
